Measured values reported in publication PMC12295313 (2025).
Numbering of substitutions follows the chain as printed.

T1: FGFR1c ectodomain (extracellular ligand-binding domain of FGFR1c), P11362
T1 chain: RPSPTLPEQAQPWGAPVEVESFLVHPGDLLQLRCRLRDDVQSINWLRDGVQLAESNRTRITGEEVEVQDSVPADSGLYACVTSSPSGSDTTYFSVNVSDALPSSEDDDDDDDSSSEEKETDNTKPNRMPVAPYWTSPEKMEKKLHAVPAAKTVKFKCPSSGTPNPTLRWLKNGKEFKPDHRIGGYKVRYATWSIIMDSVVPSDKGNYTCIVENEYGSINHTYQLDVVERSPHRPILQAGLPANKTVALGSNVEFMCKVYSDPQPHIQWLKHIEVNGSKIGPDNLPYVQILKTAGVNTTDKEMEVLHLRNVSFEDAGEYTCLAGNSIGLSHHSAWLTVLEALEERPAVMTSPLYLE

T2: FGFR1c ectodomain (extracellular ligand-binding domain of FGFR1c) (UniProt P11362 22-376)
T2 chain: T1 chain

B1: Recombinant human wild-type FGF21 (His29-Ser209), Q9NSA1 29-209 (protein)
chain: HPIPDSSPLLQFGGQVRQRYLYTDDAQQTEAHLEIREDGTVGGAADQSPESLLQLKALKPGVIQILGVKTSRFLCQRPDGALYGSLHFDPEACSFRELLLEDGYNVYQSEAHGLPLHLPGNKSPHRDPAPRGPARFLPLPGLPPALPEPPGILAPQPPDVGSSDPLSMVGPSQGRSPSYAS
B2: FGF21^D2D3 (FGF21 with its R96–V106 region replaced by the L101–T111 segment of FGF1) (ligand)
chain: B1 chain with R96L, L98R, L100E, D102N, G103H, V106T

Assays:
[1] = target: T1, FGFR1c ectodomain (extracellular …); test: SPR; conditions: chains chain, remark: other sources report otherwise
[2] = target: T2, FGFR1c ectodomain (extracellular …); test: SPR

Binder | Kd [1] [µM] | Kd [2] [µM]
B1 | 7.96 | 
B2 |  | 3.94
